# Earlier results in article PMC11603612.
# Key:
# Asp129 = Asp129 (UniProt position 112, EEQNNDALSPA)
# Asp145 = Asp145 (UniProt position 128, AEHNLDASAIK)
# Asp162 = Asp162 (UniProt position 145, RLTREDVEKHL)
# His166 = His166 (UniProt position 149, EDVEKHLAKAP)
# His142 = His142 (UniProt position 125, RLLAEHNLDAS)
# Glu164 = Glu164 (UniProt position 147, TREDVEKHLAK)
# Glu141 = Glu141 (UniProt position 124, RRLLAEHNLDA)
# Glu161 = Glu161 (UniProt position 144, GRLTREDVEKH)
# Asp23 = Asp23 (UniProt position 23, IKNVADGYANN)
# Glu54 = Glu54 (UniProt position 54, AQKQKEQRQAA)
# Asp8 [1] = target: Asp8 (UniProt position 8, VIFLKDVKGKG)
# Glu17 = Glu17 (UniProt position 17, KGKKGEIKNVA)
# Glu48 [2] = target: Glu48 (UniProt position 48, NLKALEAQKQK)
# Glu38 = Glu38 (UniProt position 38, QGLAIEATPAN)
# His48 = His48 (UniProt position 74, VNTFVHESLAD)
# Glu86 = Glu86 (UniProt position 112, ITDCRETGSSK)
# Asp14 = Asp14 (UniProt position 40, ERQHMDSSTSA)
# Glu9 = Glu9 (UniProt position 35, AAAKFERQHMD)
# Glu49 = Glu49 (UniProt position 75, NTFVHESLADV)
# His105 = His105 (UniProt position 131, TQANKHIIVAC)
# Asp53 = Asp53 (UniProt position 79, HESLADVQAVC)
# Asp83 = Asp83 (UniProt position 109, TMSITDCRETG)
# Asp121 = Asp121 (UniProt position 147, VPVHFDASV--)
# Glu2 = Glu2 (UniProt position 28, PSLGKETAAAK)
# Asp38 = Asp38 (UniProt position 64, RNLTKDRCKPV)
# His12 = His12 (UniProt position 38, KFERQHMDSST)
# His119 = His119 (UniProt position 145, PYVPVHFDASV)
# Glu111 = Glu111 (UniProt position 137, IIVACEGNPYV)
# Glu64 = Glu64 (UniProt position 64, LKEHCEVILST)
# Glu57 [3] = target: Glu57 (UniProt position 57, AIVALEALKEH)
# Glu131 = Glu131 (UniProt position 131, GHPENERCDEL)
# His127 = His127 (UniProt position 127, KGHAGHPENER)
# His124 = His124 (UniProt position 124, EWVKGHAGHPE)
# Asp70 = Asp70 (UniProt position 70, VILSTDSQYVR)
# Glu147 = Glu147 (UniProt position 147, MNPTLEDTGYQ)
# Glu129 [4] = target: Glu129 (UniProt position 129, HAGHPENERCD)
# Asp134 = Asp134 (UniProt position 134, ENERCDELARA)
# Asp10 = Asp10 (UniProt position 10, VEIFTDGSCLG)
# Glu6 [5] = target: Glu6 (UniProt position 6, MLKQVEIFTDG)
# Glu48 [6] = target: Glu48 (UniProt position 48, TNNRMELMAAI)
# His62 = His62 (UniProt position 62, EALKEHCEVIL)
# Glu135 [7] = target: Glu135 (UniProt position 135, NERCDELARAA)
# Glu119 = Glu119 (UniProt position 119, HQIKWEWVKGH)
# Asp94 = Asp94 (UniProt position 94, GWKTADKKPVK)
# Asp108 = Asp108 (UniProt position 108, LWQRLDAALGQ)
# Glu61 = Glu61 (UniProt position 61, LEALKEHCEVI)
# Glu32 = Glu32 (UniProt position 32, RYRGREKTFSA)
# Glu154 = Glu154 (UniProt position 154, TGYQVEV----)
# Glu67 = Glu67 (UniProt position 149, TKKMVENAKKI)
# Glu101 = Glu101 (UniProt position 183, GKMVNEALVRQ)
# His121 = His121 (UniProt position 203, KPNNTHEQHLR)
# Asp95 = Asp95 (UniProt position 177, AYIYADGKMVN)
# Asp21 = Asp21 (UniProt position 103, KAIDGDTVKLM)
# Glu52 = Glu52 (UniProt position 134, PKKGVEKYGPE)
# Glu122 = Glu122 (UniProt position 204, PNNTHEQHLRK)
# Asp19 = Asp19 (UniProt position 101, LIKAIDGDTVK)
# Asp40 = Asp40 (UniProt position 122, RLLLVDTPETK)
# Glu73 = Glu73 (UniProt position 155, NAKKIEVEFDK)
# Glu57 [8] = target: Glu57 (UniProt position 139, EKYGPEASAFT)
# Glu10 = Glu10 (UniProt position 92, KKLHKEPATLI)
# His8 = His8 (UniProt position 90, STKKLHKEPAT)
# Glu43 = Glu43 (UniProt position 125, LVDTPETKHPK)
# Glu129 [9] = target: Glu129 (UniProt position 211, HLRKSEAQAKK)
# Glu135 [10] = target: Glu135 (UniProt position 217, AQAKKEKLNIW)
# Glu75 = Glu75 (UniProt position 157, KKIEVEFDKGQ)
# Asp64 = Asp64 (UniProt position 64, VDDCQDVASEC)
# Glu95 = Glu95 (UniProt position 95, SGANKEKLEAT)
# Glu47 = Glu47 (UniProt position 47, FHSLSEKYSNV)
# Glu103 = Glu103 (UniProt position 103, EATINELV---)
# Glu70 = Glu70 (UniProt position 70, VASECEVKCMP)
# Glu56 = Glu56 (UniProt position 56, NVIFLEVDVDD)
# Asp20 = Asp20 (UniProt position 20, LDAAGDKLVVV)
# Asp58 = Asp58 (UniProt position 58, IFLEVDVDDCQ)
# Asp61 = Asp61 (UniProt position 61, EVDVDDCQDVA)
# Glu6 [11] = target: Glu6 (UniProt position 6, MVKQIESKTAF)
# Glu98 = Glu98 (UniProt position 98, NKEKLEATINE)
# Glu88 = Glu88 (UniProt position 88, GQKVGEFSGAN)
# Glu68 = Glu68 (UniProt position 68, QDVASECEVKC)
# Asp16 = Asp16 (UniProt position 16, FQEALDAAGDK)
# Glu13 = Glu13 (UniProt position 13, KTAFQEALDAA)
# Asp60 = Asp60 (UniProt position 60, LEVDVDDCQDV)
# Asp8 [12] = tested on: Asp8
# Asp44 = Asp44 (UniProt position 794, ENHLSDEDFKA)
# Glu72 = Glu72 (UniProt position 822, QNLKKEKGLF-)
# Asp46 = Asp46 (UniProt position 796, HLSDEDFKAVF)
# Glu45 = Glu45 (UniProt position 795, NHLSDEDFKAV)
# Asp12 = Asp12 (UniProt position 39, WQNWTDGGGIV)
# His157 = His157 (UniProt position 184, NAWKSHGMNLG)
# Asp5 = Asp5 (UniProt position 32, SAASTDYWQNW)
# Glu79 = Glu79 (UniProt position 106, RSPLIEYYVVD)
# Asp122 = Asp122 (UniProt position 149, PSIDGDRTTFT)
# Asp107 = Asp107 (UniProt position 134, DGGTYDIYTTT)
# Asp120 = Asp120 (UniProt position 147, NAPSIDGDRTT)
substance,measurement,setting,value
BBL (peripheral subunit-binding domain of 2-oxoglutarate dehydrogenase E2) (Escherichia coli (inferred)),pKa,Asp129,3.9
same,pKa,Asp145,3.7
same,pKa,Asp162,3.2
same,pKa,His166,5.4
same,pKa,His142,6.5
same,pKa,Glu164,4.5
same,pKa,Glu141,4.5
same,pKa,Glu161,3.7
N-terminal domain of ribosomal protein L9 (NTL / NTL9) (Geobacillus stearothermophilus (inferred)),pKa,Asp23,3.1
same,pKa,Glu54,4.2
same,pKa,Asp8 [1],3
same,pKa,Glu17,3.6
same,pKa,Glu48 [2],4.2
same,pKa,Glu38,4
Ribonuclease A (RNaseA) (Bos taurus (inferred)),pKa,His48,6
same,pKa,Glu86,4.1
same,pKa,Asp14,2
same,pKa,Glu9,4
same,pKa,Glu49,4.7
same,pKa,His105,6.7
same,pKa,Asp53,3.9
same,pKa,Asp83,3.5
same,pKa,Asp121,3.1
same,pKa,Glu2,2.8
same,pKa,Asp38,3.5
same,pKa,His12,6.2
same,pKa,His119,6.1
same,pKa,Glu111,3.6
Ribonuclease HI (RNaseH) (Escherichia coli),pKa,Glu64,4.4
same,pKa,Glu57 [3],3.2
same,pKa,Glu131,4.3
same,pKa,His127,7.9
same,pKa,His124,7.1
same,pKa,Asp70,2.6
same,pKa,Glu147,4.2
same,pKa,Glu129 [4],3.6
same,pKa,Asp134,4.1
same,pKa,Asp10,6.1
same,pKa,Glu6 [5],4.5
same,pKa,Glu48 [6],4.4
same,pKa,His62,7
same,pKa,Glu135 [7],4.3
same,pKa,Glu119,4.1
same,pKa,Asp94,3.2
same,pKa,Asp108,3.2
same,pKa,Glu61,3.9
same,pKa,Glu32,3.6
same,pKa,Glu154,4.4
Staphylococcal nuclease (SNase) (Staphylococcus aureus (inferred)),pKa,Glu67,3.8
same,pKa,Glu101,3.8
same,pKa,His121,5.2
same,pKa,Asp95,2.2
same,pKa,Asp21,6.5
same,pKa,Glu52,3.9
same,pKa,Glu122,3.9
same,pKa,Asp19,2.2
same,pKa,Asp40,3.9
same,pKa,Glu73,3.3
same,pKa,Glu57 [8],3.5
same,pKa,Glu10,2.8
same,pKa,His8,6.5
same,pKa,Glu43,4.3
same,pKa,Glu129 [9],3.8
same,pKa,Glu135 [10],3.8
same,pKa,Glu75,3.3
Thioredoxin (residue set of human thioredoxin) (Homo sapiens (inferred from residue set; not stated)),pKa,Asp64,3.2
same,pKa,Glu95,4.1
same,pKa,Glu47,4.1
same,pKa,Glu103,4.4
same,pKa,Glu70,4.6
same,pKa,Glu56,5.1
same,pKa,Asp20,3.8
same,pKa,Asp58,5.3
same,pKa,Asp61,4.2
same,pKa,Glu6 [11],4.8
same,pKa,Glu98,3.9
same,pKa,Glu88,3.7
same,pKa,Glu68,4.9
same,pKa,Asp16,4
same,pKa,Glu13,4.4
same,pKa,Asp60,2.8
Turkey ovomucoid third domain (OMTKY3) (Meleagris gallopavo (inferred)),pKa,His53,7.5
same,pKa,Glu44,4.8
same,pKa,Asp27,2.3
same,pKa,Asp8 [12],2.7
same,pKa,Glu11,4.1
same,pKa,Glu20,3.2
Villin headpiece subdomain HP36 (Gallus gallus (inferred)),pKa,Asp44,3.1
same,pKa,Glu72,4.4
same,pKa,Asp46,3.5
same,pKa,Glu45,4
"Xylanase (family 11 endo-1,4-beta-xylanase) (Bacillus circulans (inferred))",pKa,Asp12,2.5
same,pKa,His157,6.5
same,pKa,Asp5,3
same,pKa,Glu79,4.6
same,pKa,Asp122,3.6
same,pKa,Asp107,2.7
same,pKa,Asp120,3.2
